Laboratory results as given in US20120178909A1 (MorphoSys, published 2012).

B1: AbD05322 (Fab, V domains shown)
VH: QVQLVESGGGLVQPGGSLRLSCAASGFTFSNFWMSWVRQAPGKGLEWVSAISYSSSSTYFADSVKGRFTISRDNSKNTLYLQMNSLRAEDTAVYYCARAYRSYFDIWGQGTLVTVSS
VL: DIQMTQSPSSLSASVGDRVTITCRASQSISNWLNWYQQKPGKAPKLLIYNASILQSGVPSRFSGSGSGTDFTLTISSLQPEDFAVYYCQQNYGIPITFGQGTKVEIKR
B2: AbD05444 (Fab, V domains shown)
VH: QVQLVESGGGLVQPGGSLRLSCAASGFTFSSYWLNWVRQAPGKGLEWVSGISSSSSSTFYADGVKGRFTISRDNSKNTLYLQMNSLRAEDTAVYYCARHSYFDYWGQGTLVTVSS
VL: DIQMTQSPSSLSASVGDRVTITCRASQSIVTYLNWYQQKPGKAPKLLIYAASNLQSGVPSRFSGSGSGTDFTLTISSLQPEDFAVYYCQQLYSHPPTFGQGTKVEIKR
B3: AbD05321 (Fab, V domains shown)
VH: QVQLVQSGAEVKKPGSSVKVSCKASGGTFSSHAISWVRQAPGQGLEWMGGIIPIFGMANYAQKFQGRVTITADESTSTAYMELSSLRSEDTAVYYCARYYWKPVLFDFDVWGQGTLVTVSS
VL: DIALTQPASVSGSPGQSITISCTGTSSDIGGNNYVSWYQQHPGKAPKVMIYEVSKRPSGVSNRFSGSKSGNTASLTISGLQAEDEADYYCSSYTMTIFVFGGGTKLTVLG
B4: AbD05445 (Fab, V domains shown)
VH: QVQLVESGGGLVQPGGSLRLSCAASGFTFSNNAMTWVRQAPGKGLEWVSLISYSGSSTYYADSVKGRFTISRDNSKNTLYLQMNSLRAEDTAVYYCARLGGNPLGPFDHWGQGTLVTVSS
VL: DIALTQPASVSGAPGQRVTISCTGTSSDIGGYSYVSWYQQHPGKAPKLMIYGVTKRPSGVSNRFSGSKSGNTASLTISGLQAEDEADYYCQSWATHPIRVFGGGTKLTVLG
B5: AbD05446 (Fab, V domains shown)
VH: QVQLVESGGGLVQPGGSLRLSCAASGFTFNSNSMSWVRQAPGKGLEWVSGISGIGSNTNYADSVKGRFTISRDNSKNTLYLQMNSLRAEDTAVYYCARVHYYSGVVFDFWGQGTLVTVSS
VL: DIELTQPPSVSVAPGQTARISCSGDNLRTQYASWYQQKPGQAPVLVIYNKNKRPSGIPERFSGSNSGNTATLTISGTQAEDEADYYCAAWDSGSIVFGGGTKLTVLG
B6: AbD05320 (Fab, V domains shown)
VH: QVQLVQSGAEVKKPGESLKISCKGSGYSFTNYWISWVRQAPGKGLEWMGIIDPGDSDTNYSPSFQGQVTISADKSISTAYLQWSSLKASDTAMYYCARVNYYNFDYWGQGTLVTVSS
VL: DIVLTQSPATLSLSPGERATLSCRASQSVTSNLAWYQQKPGQAPRLLIYGNVSRRATGVPARFSGSGSGTDFTLTISSLEPEDFATYYCQQYGDYPATFGQGTKVEIKR

These binders were tested against T1, DV2 NS2B-NS3pro construct, wild type (strain 16681) (WNV strain of the DV serotype 2 (DV2; …, UniProt P29990 1393-1440; P29990 1476-1687) (assay: ELISA on coated construct).
T1 construct: range 1393-1440;range 1476-1687

Binder | binding result
B1 | no binding (tested: 2 µg/ml antibody)
B2 | no binding (tested: 2 µg/ml antibody)
B3 | no binding (tested: 2 µg/ml antibody)
B4 | no binding (tested: 2 µg/ml antibody)
B5 | no binding (tested: 2 µg/ml antibody)
B6 | no binding (tested: 2 µg/ml antibody)
